The source of these data is patent US20180320200A1.

This assay addresses cell surface of 293 AAV cells (human). The experiment in a line: cell binding on ice for 1 h at 200000 TU/cell; unbound particles recovered from the medium and titrated on TG1 E. coli by colony counting; relative to control.

“M13.PAAV vector (non-targeted phagemid/AAV particle lacking RGD4C) (from UniProt P69168 19-424)” yielded a binding efficiency (percentage of vectors bound to the cell surface) of 7.1%. Substance “RGD.PAAV vector (phagemid/AAV particle displaying the RGD4C targeting peptide on the pIII minor coat protein)” yielded a binding efficiency (percentage of vectors bound to the cell surface) of 58.2%.
